Experiment: label from the status in PepcDB records

Sequence | protein production
MIKGTGHMIVNIANDRGMSIDSIRKTIKESVLIAYKKYFGSNENAFIKFDDDTGDLSVYAKKKIVKEVKDSLLEILEKDISKENIVEGDYAYIEINPKVFDRLSIQVAKQRTKNDLQGIEDNEILSEFKSKLNKVVIGYVQQNRNGDLYVNLGLEHHHHHH | not failed
MTSLPTPIIGLIVAVFVLVWLVLRTRVHALIAMLAAACIAGLLGGMGIDKTLSVITSGFGTTLGSIGLVIGLGVMMGRLLEVSGAAERIAWSFIKWLGKRREEWALAITGYIVSIPIFVDSAFVILYPVAKALAKSGKRSLLTLGVALAGGLAVTHHTVPPTPGPLGVAGIFNVDIGAMLLTGMALAVPCVIGIVFYAQWLDKRYPDFVPRTLNADEVNAALEQYNKEKEQKDLPSLTLSLLPIVVPIVLIFLKAICSTLATIEGWSGLATHPVVQAINFVGSPVIALAISVLLAVYTLVPRMDKHTTAERLEEGLQSAGIILLVTGAGGALGAILRDSGAGQQLAEQVANLPISPILIPFIVATLVRLIQGSGTVAMITAASISAPILAQIPGINMLLAAQAATMGSLFFGYFNDSLFWVVNRMMGVSDVKQQMVVWSVPTTIAWAIGGTGVALINLLFGSGGSWLDPLLPIVVLAAIMLWVRWQAQGIKDKLVVKD | failed
MAARNAFYAQSGGVTAVINASACGVLETARQYPDRIGTVYAGRNGIVGALTEDLIDTGQESAEAIAALRHTPSGAFGSCRYKLKGLEENRAQYERLIEVFRAHDIGYFFYNGGGDSADTCLKVSQLSEKLGYPLQAVHIPKTVDNDLPITDCCPGFGSVAKYIAVSVREASFDVRSMAATSTCIFVLEVMGRHAGWIAAAGGLASDERHELALVILFPEQVFDPERFLRAVDEKVRSHGYCSVVVSEGIRGADGRFVAESGSRDVFGHARLGGVAPVIADLIKERLGYKYHWAVADYLQRAARHIASRTDVEQAYAVGKAGVEMALKGLSAVMPAIVRTSDSPYRWEITAASLAEVANVEKKMPLEFISADGFGITEACRRYLRPLIEGEDYPPYAGGLPDYVTLCNVAVPKKLAASFSV | failed
MLLILIIIAFVVLFVFFAKYQKKQAQAAALAAGDPSALLNHGLTLINQNQVETGLDFIHQAVDKGFAIAAIALAELYSGRFPQVPADAKASNDWYKKAAELDPQYLAMLTLPNLLSSQAQTPDELIAQVEQLKPNAEAGQAEFQYELAYLYLRQPFLDPDASQAIYWFEKAAAQNKQEANYHLGTLYKDDERITSDYNKARKYFEKAVAAGDELAKDNLAHMLATGQGGPKDLVRAEHLLSEYAAEDDFRQYYLGKRFLYGEDFAVDYDKARHWLEKSSAAGNVFAKLALAHLKLLAQKNDQDYLQARTEFEALAPQWQEEALFGLGKIYEEGLGVSRQPIKALMYYQLAAMSHNTDYLTAYDKLSKRLGTLEIREAQSLCNNFLHQHPIPNEQQAYYYLNQAEIYRKGDHPSREGLQTAETWYRKSADLGNQNAMQALVEIYRHELMDKPVQAFIWSSILLRNFGKYGMNSDQLLYQQQAQSRLTESELLYAQSEIERIEALLTPYLETHQSV | failed
KEAGSQIMKFEVQDASPTIATELNLVTGEQVYYIKRLRFIEDNAAQLEETWMSVARFPDLTVSHMQKSKFSYIENECGIKIIGTFETFSPTFPTPEIASILRISPRDPILKIQTQAVDSNSIPLDYSLLYSN | failed
MTTEVKQSPRERLLEAAAALTYRDGVGIGVEALCKAAGVSKRSMYQLFESKDELLAASLKERSAAFVAKALPPADDGRSPRERILYVFERVESQAGAPDFQGCRYLAVQIELKDQAHPASRVAYQIKADLMAFFRSEAERGGASDPDLLARQLILVFDGASARAGIGADNLTGLIVPTLTTLLDAADMH | not failed
MMDGSTFYFVAWIGWIIVTFFMKKDPIRWKLGACILIFIICSPLHVTIASFVVSVNALLLCIISFIGITLYSVWKKLYSLLSALIIAMLYTSFHLLEIYDPIWIVVDRVFLLSSALVYASVLLHGDRILRLCSLYVGMLQAELLVTFIFSKLNFPYDYGSLAFFDIVAISTLFMAILFWIAKASVYMERFKRKTRKRKARVIHD | failed
MSHFVHPNALCESDTIGEGTRVWAFAHVLPGARLGRDCNICDGVFIESDVVVGDRVTVKCGVQLWDGVRLGDDVFVGPNATFTNDLFPRSRVYPEKFLGTVVESGASIGANATILAGTTIGSGAMIGAGAVVTRSVPPNAIVVGNPARIVGYVSDKDATGSAPSPTGQGITDTAVPGVKLYRMPSFADMRGSLSVGDFETFLPFNAKRYFLVYGVPTQETRGEHAHKRCHQFLICVSGSVRVLADDGTRRIDVELNSPSQGIHLPPMIWGTQYKYSKDAVLLVFASESYDTDEYIRDYSDFKSLANAAR | failed
MSLKDKKILIVEDSKFQAKTIANILNKYGYTVEIALTGEAAVEKVSGGWYPDLILMDIELGEGMDGVQTALAIQQISELPVVFLTAHTEPAVVEKIRSVTAYGYVMKSATEQVLITIVEMALRLYEANVHANEGHHHHHH | not failed
MKITDISGKIETLVDSLRDMSPTRVRSSFSDEHVSENDDERSSWIALHPSALDMFEQIMRDAEGKQIIMFLDYDGTLSLITEDHDRAYITDEMREVVKEVATYFKTAIISGRSTDKVQSFVKLTGIHYAGSHGMDIKGPTNTDQSNQEEVMFQPASDYLPMIDEVVNVLKEKTKSIPGATVEHNKFCLTVHFRRVDETGWAALAEQVRLVLIDYPKLRLTQGRKVLELRPSIKWDKGKALEFLLNSLGIAESKDVLPVYIGDDRTDEDAFKVLCERGQGFGIIVSKTIKETYASYSLQDPSQVKEFLERLVKWKKQTLGE | failed
MSELPPREQPPRDQAISVAAISPERPDNHENDWTRRLVLFLRVMAVLSVAKGLYHWAQITGFVGGEDDAFEVQTMAWQTATIYFAVIELVAAVGLWLATPWGAVVWLTTVVSMAVIELMFPAIYGGSLLVVLGEALLLAAYLALAWMAARERPP | failed
MREAGDAIARLRTLRDAAGRLVASRASLLRRAPVGLVVAAVVIPLVGCDTGPNFWFHKRASACPRPQVAQGVSGQFNQQQQEIRALRQGGFRGDFFAQLELARRYEGQRAVDKNLEDPVEAAVWYAMALANSGGYAPIAAYERRGKESRAVSRFDDCRAFERRSAYGALDRLLSRMSTEEREKVRNRVIYILSTQSADGFRTLARMHDGYFGPFGEPSDNLQAIEAYGKPSQPGAPAALDLFRRNDVDAYLYNYLAVQTGDVSAYVMLKDFERSSPQRASYGSFVETKAKRWIPPYEFYPPESPDSGVPHSDEADLSGEARESALYRIAELPFVHVGESLAYLRVIPTAVLDEKMLSVTEVQTLQSMIGRPNTGRLAPIEKVRAVQYAAVNGSSKAQLVLAVMYSEGVGVPRDYARAYHWYEEAERQGSAEAKYAMSTFFSLGLQGVADQDRAKAVVYQIDGALAGFKPSAWRLQQLLAQVSRPPRAAGERPQPRPIYGADDYRAAPRADDRDPRQDQPGSDRGGRPYNEGNY | failed
MLEQSLRHYYQLVLVDPILPALRDRITPLSITWLSGIFGLLFIPFVLLDKPYIAISFLLLSGYLDTLDGSLARFQNRASDFGSAMDIVIDRIVEFSAVLALYLFDPQHRATLAILMLGSILLCITSFLVVGIFSNNTTQKSFYYSPGIMERAEAFLFFIFMTLFSSCFNFLAALFCFLVCLTALIRLFEFKKSVQAPS | failed
MGRGRKHTDAAAEQRELAIKANIVDEPFSVSAIDRSIRKAEWVKTETDQILSGRCPETDGTWLGISTRGRVAFLVEAGTINRDRFNGAESRTLEFLESNESPEDFAKSSAADYIRNKNTAAFHLIVADIASNSMLYISKPRFSDYGIVYTEPVGPGVHTLSSAGLDSDVGYRDLRMRHSFCEMINRERLPPIRDIAEIMYDPVKAYESVLLSSIFFVDMKIGYEHYGTRITTALVVKRTKEVLFFERYREIFNDDWDDHDFAFTII | failed
MITYPKQMRDSGFKFEFFCDQGGYYQHVMDHLISCTQRQETPVNISNIPKCKAVLVTSLTGEIIKAQGRHLDMLLIVFED | failed
